{"source": "paper PMC7989959", "target": "alpha-synuclein (UniProt P37840 1-140)", "experiment": "electrochemical current sensor", "data": [{"binder": "GCCTGTGTTGGGGCGGGTGCG (ssDNA, 5'-SH (thiol))", "note": "[Abeta aptamer (Tsukakoshi et al)]", "values": [{"measurement": "binding result", "value": "no binding"}]}]}
